Test results reported in US20250109212A1 (BIOSION, published 2025).

B1: BSI038×S-002 (bispecific antibody, human IgG2, kappa)
heavy: not shown
light: EIVLTQSPATLSLSPGERATLSCRASQTINNNLHWYQQKPGQAPRLLIKYASQSISGIPARFSGSGSGTDFTLTISSLEPEDFAVYFCQQFSSWPLTFGGGTKVEIKRTVAAPSVFIFPPSDEQLKSGTASVVCLLNNFYPREAKVQWKVDNALQSGNSQESVTEQDSKDSTYSLSSTLTLSKADYEKHKVYACEVTHQGLSSPVTKSFNRGEC
notes: Wild-type SIRPαV2D1 linked to N-terminus of each heavy chain of HuCD40-C1H1-V2 (human IgG2)
B2: HuCD40-C1H1-V2 (antibody, human IgG2, kappa, V domains shown)
VH: EVQLVESGGGLVKPGGSLRLSCAASGFTFSNYGISWVRQAPGKGLEWVSSISSGGDNTYYPDNVKGRFTISRDNAKNSLYLQMNSLRAEDTAVYYCARAGEKAMDYWGQGTLVTVSS
VL: EIVLTQSPATLSLSPGERATLSCRASQTINNNLHWYQQKPGQAPRLLIKYASQSISGIPARFSGSGSGTDFTLTISSLEPEDFAVYFCQQFSSWPLTFGGGTKVEIKR
notes: Humanized anti-CD40 IgG with human IgG2 heavy chain constant region; also called anti-CD40 antibody HuCD40-C1H1-V2

Key:
[1] = target: T1, recombinant human CD40-his protein (Cat #: CD0-H5228, Acro biosystems) (human, UniProt P25942 21-193); assay: SPR (Biacore T200), sample on Protein A chip, antigen-his analyte, 1:1 fit
T1 construct: Bought protein
Source text: (§1) The purified recombinant fusion proteins were characterized for their binding affinity and binding kinetics by Biacore T200 system (GE healthcare, Pittsburgh, PA, USA). The anti-CD40 antibody HuCD40-C1H1-V2 (having the heavy chain and the light chain of SEQ ID NOs: 19 and 20), Selicrelumab (an agonistic anti-CD40 antibody, Roche Inc., prepared in-house with heavy and light chains of SEQ ID NOs: 27 and 28), and SIRPα-Fc fusion proteins, including SIRPαV2D1M1-Fc (IgG2) (SEQ ID NO: 21, X1=I, X2=R, X3=T, X4=K, X5=F), SIRPαV2D1M2-Fc (IgG2) (SEQ ID NO: 21, X1=I, X2=R, X3=T, X4=R, X5=V), SIRPα-isoform2-Fc (SEQ ID NO: 25) were used as positive controls.
(§2) A Protein A chip (Cat #: 29-1275-56, GE healthcare) was used for affinity determination. The recombinant fusion proteins of the disclosure and the positive controls each at the concentration of 2 μg/ml were respectively flowed onto the chip at a flow rate of 10 μl/min. Then, serially diluted recombinant human CD40-his proteins (Cat #: CD0-H5228, Acro biosystems), human CD47-his proteins (Cat #: CD7-H5227, Acro biosystems), cynomolgus CD40-his proteins (Biosion in house made, SEQ ID NO: 29) or cynomolgus CD47-his proteins (Cat #: CD7-C52H1, Acro biosystems), 2-fold dilution in HBS-EP⁺ buffer (provided by Biacore) with a starting concentration of 200 nM, were flowed onto the chip at a flow rate of 30 μl/min. The association kinetics was followed for 2 minutes and the dissociation kinetics was followed for 10 minutes. The association and dissociation curves were fit to a 1:1 Langmuir binding model using the Biacore evaluation software.

[2] = target: T2, human CD47-his protein (Cat #: CD7-H5227, Acro biosystems) (human, UniProt Q08722 19-139); assay: as above
T2 construct: Bought protein
Source text: as §1, §2

[3] = target: T3, full length human CD40 (uniprot #P25942-1) on 293T-CD40 cells (human, UniProt P25942 21-277); assay: FACS on 293T-CD40 cells, detection with goat anti-human IgG (Fab)-PE, MFI
T3 construct: whole, on cells
Experimental: Following an incubation of 40 minutes at 4° C. in dark, cells were washed three times and resuspended in FACS buffer. Fluorescence was measured using a Becton Dickinson FACS Canto II-HTS equipment and plotted against the recombinant fusion protein or controls concentration. Data was analyzed using Graphpad Prism and EC₅₀ values were reported.

[4] = target: human CD40-Fc protein (prepared in-house) (human); assay: competitive ELISA: human CD40-Fc coated, blocked ligand biotin-labeled human CD40L-his, OD(450-630)
Experimental: (§3) The ability of the recombinant fusion proteins of the disclosure to block CD40-CD40L binding was measured in a competitive ELISA assay. Briefly, 100 μl/well human CD40-Fc proteins (prepared in-house with amino acid sequence of SEQ ID NO: 22) were coated on 96-well micro plates at 2 μg/mL in coating buffer (carbonate/bicarbonate buffer) and incubated overnight at 4° C. The next day, the plates were washed once with wash buffer (PBS+0.05% v/v Tween-20, PBST), and then blocked with 5% w/v non-fatty milk in PBST for 2 hours at 37° C. The plates were then washed 4 times using the wash buffer.
Serially diluted recombinant fusion proteins of the disclosure or controls (starting at 10 µg/mL with a 5-fold serial dilution) in PBST with 2.5% w/v non-fatty milk were added to the CD40-Fc bound plates, 100 μl per well, and incubated at 37° C. for 40 minutes. The plates were washed 4 times using wash buffer, and then added and incubated for 40 minutes at 37° C. with 100 μl/well 95 ng/mL biotin-labeled human CD40L-his protein (Cat #: 10239-H08E, Sino biological). The plates were washed again using wash buffer, added with 100 μl/well streptavidin conjugated HRP (1:10000 dilution in PBST buffer, Cat #: 016-030-084, Jackson ImmunoResearch) and incubated for 40 minutes at 37° C. The plates were washed again using wash buffer. […] The absorbance was read on a microplate reader using the dual wavelength mode with 450 nm for TMB and 630 nm as the reference wavelength, then the OD (450-630) values were plotted against the recombinant fusion protein or controls concentration. Data was analyzed using Graphpad Prism and IC₅₀ values were reported.

[5] = target: human CD40-Fc protein (Cat #: CD0-H5253, ACRO Biosystems) (human, UniProt P25942 21-193); assay: dual-binding ELISA: human CD40-Fc coated, binder titrated, detected with human CD47-his and anti-His-HRP, OD450
Experimental: (§4) The binding activity of the recombinant fusion proteins to human CD40 and CD47 was also tested by dual-binding ELISA assay. Briefly, 100 μl/well human CD40-Fc proteins (Cat #: CD0-H5253, ACRO Biosystems) were coated on 96-well plates at 0.2 μg/mL in PBS and incubated overnight at 2-8° C. The next day, the plates were washed 3 times using wash buffer (PBS+0.05% v/v Tween-20, PBST), and then blocked with block buffer (PBS+1% w/v BSA) for 3 hours at 37° C. The plates were then washed 3 times using the wash buffer.
(§5) Serially diluted recombinant fusion proteins of the disclosure or controls (starting at 100 nM with a 6-fold serial dilution) in block buffer were added to the CD40-Fc bound plates, 100 μL per well, and incubated at 37° C. for 1 hour. The plates were washed 3 times using wash buffer, and then added and incubated for 1 hour at 37° C. with 100 μl/well 3 μg/mL human CD47-his protein (Cat #: CD7-H5227, ACRO Biosystems). The plates were washed again using wash buffer, added with 100 μl/well Anti-His tag Antibody (HRP) (1:2000 dilution in block buffer, Cat #: 105327-MM02T-H, Sino Biological) and incubated for 1 hour at 37° C. The plates were washed again using wash buffer. […] The absorbance was read using a microplate reader set to 450 nm, then the OD (450) values were plotted against the recombinant fusion protein or controls concentration. Data was analyzed using Graphpad Prism and EC₅₀ values were reported.

[6] = target: T4, biotin-labeled human CD47-Fc (Biosion in house made) (human, biotin-labeled (sites not given)); assay: competitive ELISA: binder premixed with biotin-labeled human CD47-Fc, blocked partner coated human CD172a-Fc, OD(450-630)
T4 construct: also called Human CD47-Fc protein
Experimental: as §3, with “CD47-CD172a” for “CD40-CD40L”, “CD172a-Fc” for “CD40-Fc”, “24)” for “22)”, “using” for “using the”
Serially diluted recombinant fusion proteins of the disclosure or controls (starting at 100 nM with a 5-fold serial dilution) were mixed with 20 ng/ml biotin-labeled human CD47-Fc (Biosion in house made, SEQ ID NO: 23) in PBST with 2.5% w/v non-fatty milk. The mixtures were incubated at 37° C. for 40 minutes, and respectively added to the CD172a-Fc bound plates, 100 μl per well. The plates were incubated at 37° C. for 40 minutes, washed 4 times using wash buffer, added with 100 μl/well streptavidin conjugated HRP (1:10000 dilution in PBST buffer, Cat #: 016-030-084, Jackson ImmunoResearch), incubated for 40 minutes at 37° C., and washed again using wash buffer. […] The plates were read on a microplate reader using the dual wavelength mode with 450 nm for TMB and 630 nm as the reference wavelength, and the OD (450-630) values were plotted against the recombinant fusion protein or controls concentration. Data was analyzed using Graphpad Prism and IC₅₀ values were reported. Wild-type SIRPαV2D1-Fc (IgG2) (SEQ ID NO: 21, X1=V, X2=K, X3=S, X4=K, X5=F) was used as a positive control.

[7] = target: T2, human CD47-his protein (Cat #: …); assay: dual-binding ELISA: human CD40-Fc coated, binder titrated, detected with human CD47-his and anti-His-HRP, OD450
Experimental: as §4, §5

Row | Binder | Kd [1] | koff [1] | kon [1] | Kd [2] | koff [2] | kon [2] | EC50 [3] | IC50 [4] | EC50 [5] | IC50 [6] | binding result [7]
1 | B1 | 0.729 nM | 0.00184 s⁻¹ | 2.53e+06 M⁻¹ s⁻¹ | 6.31 nM | 0.00686 s⁻¹ | 1.09e+06 M⁻¹ s⁻¹ | 1.19 nM | ~2.37 nM | 0.689 nM | 76.8 nM | –
2 | B2 | 1.05 nM | 0.00169 s⁻¹ | 1.62e+06 M⁻¹ s⁻¹ | – | – | – | 1.06 nM | 1.01 nM | – | – | no binding (tested: 100 nM)
